Assay [1] concerns the target T1, BG29 (human IgG4 heavy chain and kappa light chain chimeric).
T1 construct: Chimeric: mouse VH and VL with human IgG4 heavy chain and kappa light chain constant regions; also called chimeric BG29
Nature of the assay: ELISA peptide competition: peptide preincubated with chimeric IgG4 BG29, competitor hLAG3-mFc; capture on anti-human IgG, anti-mouse IgG-HRP. As for the experimental part:
(§1) FIGS. 5A-5D show the effect of competition peptides on LAG-3 binding to anti-LAG-3 mAbs. […] B5/IgG4 was preincubated with a competition peptide for 30 minutes. Then human LAG-3 extracellular domain (ECD) fused to mouse Fc (hLAG3-mFc) was added (the final peptide concentration was 600-fold that of hLAG3-mFc) and the mixture was incubated for 60 minutes before being added to an ELISA plate coated with anti-human IgG. The incubation was carried out at 4° C. overnight. After washing, the hLAG3-mFc bound to the immobilized B5/IgG4 on the ELISA plate was detected by adding anti-mouse IgG conjugated to horseradish peroxidase (HRP) and incubating for 60 minutes. Then, after washing, the ELISA was developed using One-step Detection Solution and measured as the absorbance at 450 nm.
(§2) Anti-human IgG in carbonate coating buffer was coated on an ELISA plate at 4° C. (50 μL/well at 1 μg/mL) overnight. In each well of a separate plate, a chimeric version of a given anti-LAG-3 mAb (50 μL/well at 1.4 nM) and a competition peptide (50 μL/well at various concentrations as indicated in the figures) were mixed and incubated for 30 minutes at room temperature. Then human LAG-3 extracellular domain (ECD) fused to mouse Fc (hLAG3-mFc) was added to each well (50 μL/well at 2 nM) and the final mixture was incubated at room temperature for 60 minutes before added to the ELISA plate (50 μL/well) for another 60-minute incubation. The final incubation after adding the mixture to the ELISA plate was also performed at 4° C. overnight in some assays. The plate was washed and the binding of hLAG3-mFc to the immobilized anti-LAG-3 mAb was detected by adding anti-mouse IgG conjugated to horseradish peroxidase ([…]) (ThermoFisher Scientific, Cat#: A16084; Waltham, Mass.) and incubating for 60 minutes.

The target in assay [2] is T2, B5/IgG4.
T2 construct: Chimeric: mouse VH and VL with human IgG4 heavy chain and kappa light chain constant regions; also called B5 (human IgG4 heavy chain and kappa light chain chimeric)
As to the kind of experiment: ELISA peptide competition: peptide preincubated with B5/IgG4, competitor hLAG3-mFc; peptide at 600-fold hLAG3-mFc; capture on anti-human IgG, anti-mouse IgG-HRP. Here is the method:
as §1, §2

The target in assay [3] is T2, B5/IgG4. As to the kind of experiment: ELISA peptide competition: peptide preincubated with B5/IgG4, competitor hLAG3-mFc; capture on anti-human IgG, anti-mouse IgG-HRP. Here is the method: as §1, §2
Assay [4] has as its target T3, B12 (human IgG1 heavy chain and kappa light chain chimeric).
T3 construct: Chimeric: mouse VH and VL with human IgG1 heavy chain and kappa light chain constant regions
Nature of the assay: ELISA peptide competition: peptide preincubated with chimeric IgG1 B12, competitor hLAG3-mFc; capture on anti-human IgG, anti-mouse IgG-HRP. As for the experimental part:
as §1, §2

The target in assay [5] is T1, BG29 (human IgG4 heavy chain and kappa …). As to the kind of experiment: ELISA peptide competition: peptide preincubated with chimeric IgG4 BG29, competitor hLAG3-mFc; peptide at 200-fold hLAG3-mFc; capture on anti-human IgG, anti-mouse IgG-HRP. Here is the method:
as §1, §2

For another assay, the target named is T4, human LAG-3(ECD)-huFc (human, UniProt P18627 23-450).
T4 construct: also called Fc-tagged human LAG-3(ECD)-huFc; not shown: human Fc (huFc) at the C-terminus
T4 sequence: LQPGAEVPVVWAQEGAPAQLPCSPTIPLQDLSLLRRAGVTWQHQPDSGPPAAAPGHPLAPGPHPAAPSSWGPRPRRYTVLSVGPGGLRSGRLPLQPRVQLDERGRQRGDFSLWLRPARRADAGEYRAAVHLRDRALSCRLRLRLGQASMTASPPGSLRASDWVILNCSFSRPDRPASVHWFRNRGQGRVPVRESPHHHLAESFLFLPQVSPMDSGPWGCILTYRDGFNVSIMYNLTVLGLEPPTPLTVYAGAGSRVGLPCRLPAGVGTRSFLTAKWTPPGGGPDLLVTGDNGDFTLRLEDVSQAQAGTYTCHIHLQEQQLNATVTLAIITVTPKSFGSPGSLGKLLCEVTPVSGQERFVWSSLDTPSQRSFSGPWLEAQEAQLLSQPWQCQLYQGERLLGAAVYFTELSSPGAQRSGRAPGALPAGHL
Nature of the assay: SPR (Biacore): mAb from hybridoma supernatant captured on anti-mouse IgG CM5 chip, human LAG-3(ECD)-huFc 50-400 nM injected. Here is the method: Anti-mouse IgG antibodies were immobilized via amine coupling on CM5 chip surface. Anti-LAG-3 mAbs in hybridoma supernatants were captured on the chip surface and a series of concentrations (50-400 nM) of human LAG-3(ECD)-huFc protein were injected and passed through the captured surface. The on and off rates for antibody-antigen binding were measured, curve fitted and calculated.

Assay [6] has as its target T5, full-length human LAG-3 on stably transfected CHO-S cells (human, UniProt P18627 23-525).
T5 construct: also called hLAG3
T5 sequence: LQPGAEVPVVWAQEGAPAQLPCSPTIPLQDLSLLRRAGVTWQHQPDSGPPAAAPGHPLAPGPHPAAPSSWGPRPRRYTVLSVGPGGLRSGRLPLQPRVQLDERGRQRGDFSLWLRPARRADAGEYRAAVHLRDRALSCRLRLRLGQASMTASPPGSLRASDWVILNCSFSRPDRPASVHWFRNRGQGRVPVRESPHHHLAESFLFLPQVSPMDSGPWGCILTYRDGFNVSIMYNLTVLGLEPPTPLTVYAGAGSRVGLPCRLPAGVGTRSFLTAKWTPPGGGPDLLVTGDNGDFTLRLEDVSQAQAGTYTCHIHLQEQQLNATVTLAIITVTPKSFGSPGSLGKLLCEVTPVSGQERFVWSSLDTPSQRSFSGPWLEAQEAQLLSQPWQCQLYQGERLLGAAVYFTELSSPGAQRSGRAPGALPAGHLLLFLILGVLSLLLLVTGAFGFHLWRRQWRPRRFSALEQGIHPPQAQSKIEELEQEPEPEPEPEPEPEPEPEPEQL
Nature of the assay: FACS, CHO-S cells stably transfected with full-length human LAG-3, PE anti-mouse IgG. Here is the method: CHO-S cells stably transfected with full-length human LAG-3 were transferred to a 96-well plate. Around 200,000 cells were incubated with either purified chimeric anti-LAG-3 mAbs (variable regions of mouse mAbs fused to the constant regions of human IgG1 heavy chain and kappa light chain, respectively) or purified mouse anti-LAG-3 mAbs from hybridoma supernatants at various concentrations for 15 minutes at 4° C. Cells were then centrifuged at 1,000 rpm for 5 minutes and washed with FACS buffer (PBS supplemented with 5% BSA) three times. For the cells treated with the chimeric antibodies, the cells were then incubated with PE-conjugated goat anti-human IgG polyclonal antibodies and incubated on ice for another 15 minutes; for the cells treated with mouse mAbs, the cells were incubated with PE-conjugated goat anti-mouse IgG polyclonal antibodies and incubated on ice for another 15 minutes. Cells were then washed with FACS buffer three times and then resuspended in FACS buffer containing 0.1 μg/ml PI (propidium iodide) for live/dead cell gating. Cells were then run through the FACS Caliber instrument and the data were analyzed by the Flowjo software. Results of the FACS binding analysis of the mouse anti-LAG-3 mAbs (B1, B2, B3, B4, B5, B6, B7, B8, B9, B10, B11, B12, and B13) are provided in FIGS. 1A-1B.

The target of another assay is T6, human LAG-3(ECD)-mFc (human, UniProt P18627 23-450).
T6 construct: also called hLAG3-mFc; human LAG-3 extracellular domain (ECD) fused to mouse Fc; not shown: mouse Fc
T6 sequence: T4 sequence
As to the kind of experiment: FACS blocking assay: mAb preincubated with LAG-3(ECD)-mFc (1 µg/mL), blocked ligand MHC class II on Daudi cells, PE anti-mouse Fc. Here is the method:
FIGS. 4A-4D show inhibition of human LAG-3 binding to MHC class II molecules by select anti-LAG-3 mAbs. An in vitro binding assay was performed using recombinant LAG-3(ECD)-mFc and Daudi cells which express human MHC class II molecules. […] The binding of LAG-3(ECD)-mFc to Daudi cells in the presence of anti-LAG-3 mAbs or a control mAb was analyzed by FACS.
Human Daudi cells were cultured in RPMI+10% FBS. Human LAG-3(ECD)-mFc protein (human LAG-3 ECD fused to mouse Fc) at 1 μg/ml final concentration was incubated with purified mouse, humanized, or chimeric anti-LAG-3 mAbs at various concentrations for 15 minutes at 4° C. The mixture was then added to 100,000 human Daudi cells in a 96-well round bottom plate, mixed and incubated for 15 minutes on ice. Cells were then centrifuged at 1,000 rpm for 5 minutes and washed with FACS buffer (PBS supplemented with 5% BSA) three times. The cells were then incubated with PE-conjugated goat anti-mouse Fc polyclonal antibodies on ice for 15 minutes, washed with FACS buffer three times and then resuspended in FACS buffer containing 0.1 μg/ml PI (propidine iodine) for live/dead cell gating. Cells were then run through the FACS Caliber instrument and the data were analyzed by the Flowjo software. Results of the inhibition of LAG-3 binding to Daudi cells by chimeric mAbs B1C, B3C, B4C, BSC, B9C, and B11C are shown in FIG. 4B.

Assay [7] addresses T3, B12 (human IgG1 heavy chain and kappa …). Nature of the assay: ELISA peptide competition: peptide preincubated with chimeric IgG1 B12, competitor hLAG3-mFc; peptide at 600-fold hLAG3-mFc; capture on anti-human IgG, anti-mouse IgG-HRP. Here is the method: as §1, §2

From patent US20210032331A1 (PHANES THERAPEUTICS, published 2021) come the findings set out here.

T1 sequence (VH, as listed by the source, chain 1 of 2): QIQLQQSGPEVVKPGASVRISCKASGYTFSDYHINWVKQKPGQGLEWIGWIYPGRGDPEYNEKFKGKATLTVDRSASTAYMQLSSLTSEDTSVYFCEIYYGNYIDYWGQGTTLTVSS
T1 sequence (VL, as listed by the source, chain 2 of 2): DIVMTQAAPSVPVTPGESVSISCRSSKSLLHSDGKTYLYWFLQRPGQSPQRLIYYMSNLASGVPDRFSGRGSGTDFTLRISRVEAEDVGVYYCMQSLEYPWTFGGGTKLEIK

GPPAAAPGHPLA (also called peptide 1-12) [1-12]: the results for the binding result (in assay [1]; with B5/IgG4 [2]) were “no binding (tested: 200-fold hLAG3-mFc)” and “binds”, respectively.

For APGHPLAP (also called peptide 6-13) [6-13], the binding result in assay [1] is reported as “no binding (tested: 200-fold hLAG3-mFc)”.

Regarding QPDSGPPAAAPGHPL (also called peptide Q15) [Q15], the binding result (with B5/IgG4 [3]; in assay [4]) was “no binding (tested: 600-fold hLAG3-mFc)” each time.

On to AAAPGHPLAPG (also called peptide 4-14) [4-14], for which the binding result is listed as “binds” in assay [5] and “no binding (tested: 600-fold hLAG3-mFc)” in [4].

B1: B9 (antibody, V domains shown)
VH: EVQLRQSGPVLVKPGASVKMSCKASGYTFTGYYMNWVKQSHGKSLEWLAVINPYNGDTAYNRKFKGRATLTVDKSSSTAYMELNRLTSEDSAVYYCVRDDGYHVRYFDVWGTGTTVTVSS
VL: DIQMTQSPSSLSASLGERVSLTCRASQDISDSLCWLQQKPDGTIKRLIYSTSTLDSGVPKRFSGSRSGSDYSLTISSLESEDFADYYCLQYASSPPTFGGGTKLEIK
notes: Mouse mAb from hybridoma; also called mouse anti-LAG-3 mAb B9
B1 registered a Kd with human LAG-3(ECD)-huFc of 1.53 nM. The “EC50 (read off the curve)” value in assay [6] was ~0.2 µg/mL.

As to GPPAAAPGHPL (also called peptide 1-11) [1-11], the binding result with B5/IgG4 [3] is on record as “no binding (tested: 600-fold hLAG3-mFc)”.

On to APGHPLAPG (also called peptide 6-14) [6-14], for which the binding result was “no binding (tested: 200-fold hLAG3-mFc)” in [1] and “no binding (tested: 600-fold hLAG3-mFc)” in assay [4].

B2: B12 (antibody, V domains shown)
VH: EVKLLESGGSLVQPGGSLKLSCAASGFDFSRYWMSWVRQAPGKGLEWIGEINPDSSTINYTPSLRDEFIISRDNAKNTLFLQMSKVISEDTALYYCARITSGYYFDYWGQGTTLTVSS
VL: DVVMTQTPLSLPVSLGDQASISCRSSQTIVYSNGNTYLYWYLQKPGQSPKLLIYRVSNRFPGVPDRFSGSGSGTDFTLKISGVEAEDMGVYYCFQGTHVPFTFGSGTKLEMK
notes: Mouse mAb from hybridoma; also called mouse anti-LAG-3 mAb B12
Consider B2, for which the binding result (with human LAG-3(ECD)-mFc; in [6]) was “binds” in each case.

Regarding QPDSGPPAAAPGHP (also called peptide Q14) [Q14], the binding result (with B5/IgG4 [3]; in assay [4]) was “no binding (tested: 600-fold hLAG3-mFc)” each time.

For the molecule PAAAPGHPLAPG (also called peptide 3-14) [3-14], the binding result in assay [7] is “binds”; with B5/IgG4 [3], “no binding (tested: 600-fold hLAG3-mFc)”; in assay [5] it was “binds”.

Consider AAPGHPLAPG (also called peptide 5-14) [5-14], for which the binding result in assay [5] was “binds”; in assay [4], “no binding (tested: 600-fold hLAG3-mFc)”.

On to PGHPLAPG (also called peptide 7-14) [7-14], for which the binding result in assay [1] is given as “no binding (tested: 200-fold hLAG3-mFc)”.
